Sequences and labels used below:
B1: E3 ubiquitin ligase TRAF3IP2 (Homo sapiens), O43734-2 (parent)
chain: MNRSIPVEVDESEPYPSQLLKPIPEYSPEEESEPPAPNIRNMAPNSLSAPTMLHNSSGDFSQAHSTLKLANHQRPVSRQVTCLRTQVLEDSEDSFCRRHPGLGKAFPSGCSAVSEPASESVVGALPAEHQFSFMEKRNQWLVSQLSAASPDTGHDSDKSDQSLPNASADSLGGSQEMVQRPQPHRNRAGLDLPTIDTGYDSQPQDVLGIRQLERPLPLTSVCYPQDLPRPLRSREFPQFEPQRYPACAQMLPPNLSPHAPWNYHYHCPGSPDHQVPYGHDYPRAAYQQVIQPALPGQPLPGASVRGLHPVQKVILNYPSPWDHEERPAQRDCSFPGLPRHQDQPHHQPPNRAGAPGESLECPAELRPQVPQPPSPAAVPRPPSNPPARGTLKTSNLPEELRKVFITYSMDTAMEVVKFVNFLLVNGFQTAIDIFEDRIRGIDIIKWMERYLRDKTVMIIVAISPKYKQDVEGAESQLDEDEHGLHTKYIHRMMQIEFIKQGSMNFRFIPVLFPNAKKEHVPTWLQNTHVYSWPKNKKNILLRLLREEEYVAPPRGPLPTLQVVPL
partner: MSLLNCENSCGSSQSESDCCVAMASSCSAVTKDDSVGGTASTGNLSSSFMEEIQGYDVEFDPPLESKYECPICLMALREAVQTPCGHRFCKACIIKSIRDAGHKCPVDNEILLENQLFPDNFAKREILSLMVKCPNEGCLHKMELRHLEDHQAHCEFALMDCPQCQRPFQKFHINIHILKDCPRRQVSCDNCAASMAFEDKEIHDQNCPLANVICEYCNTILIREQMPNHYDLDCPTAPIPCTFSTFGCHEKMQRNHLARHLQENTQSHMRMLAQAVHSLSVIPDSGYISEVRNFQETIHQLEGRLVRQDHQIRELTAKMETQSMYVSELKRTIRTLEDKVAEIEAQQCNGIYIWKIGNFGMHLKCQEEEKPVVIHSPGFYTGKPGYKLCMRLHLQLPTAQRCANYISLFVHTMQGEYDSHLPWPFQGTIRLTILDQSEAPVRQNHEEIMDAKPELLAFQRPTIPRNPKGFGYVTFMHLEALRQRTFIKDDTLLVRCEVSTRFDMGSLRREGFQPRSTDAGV

Consider one variant from IntAct's records for PubMed 20953186.

This test covers variants of B1. To be noted: with traf6_human TRAF6, Q9Y4K3.
For MNRSIPVEVNESEPYPSQLLKPIPEYSPEEESEPPAPNIRNMAPNSLSAPTMLHNSSGDFSQAHSTLKLANHQRPVSRQVTCLRTQVLEDSEDSFCRRHPGLGKAFPSGCSAVSEPASESVVGALPAEHQFSFMEKRNQWLVSQLSAASPDTGHDSDKSDQSLPNASADSLGGSQEMVQRPQPHRNRAGLDLPTIDTGYDSQPQDVLGIRQLERPLPLTSVCYPQDLPRPLRSREFPQFEPQRYPACAQMLPPNLSPHAPWNYHYHCPGSPDHQVPYGHDYPRAAYQQVIQPALPGQPLPGASVRGLHPVQKVILNYPSPWDHEERPAQRDCSFPGLPRHQDQPHHQPPNRAGAPGESLECPAELRPQVPQPPSPAAVPRPPSNPPARGTLKTSNLPEELRKVFITYSMDTAMEVVKFVNFLLVNGFQTAIDIFEDRIRGIDIIKWMERYLRDKTVMIIVAISPKYKQDVEGAESQLDEDEHGLHTKYIHRMMQIEFIKQGSMNFRFIPVLFPNAKKEHVPTWLQNTHVYSWPKNKKNILLRLLREEEYVAPPRGPLPTLQVVPL [D10N], the “effect of a mutation on the interaction” value is on record as “disrupting interaction”.
